From article PMC7575552

Target: Hsp70 (385–641) (UniProt P0DMV8)
Assay: ITC; TA Instruments NanoITC, 25 °C, stir speed 600 rpm; 350 µM WT or S20E CHIP titrated into 50 µM Hsp70 (385–641), twenty-four 2 µL injections; triplicate

Sequence of UniProt P0DMV8 (P0DMV8 385-641): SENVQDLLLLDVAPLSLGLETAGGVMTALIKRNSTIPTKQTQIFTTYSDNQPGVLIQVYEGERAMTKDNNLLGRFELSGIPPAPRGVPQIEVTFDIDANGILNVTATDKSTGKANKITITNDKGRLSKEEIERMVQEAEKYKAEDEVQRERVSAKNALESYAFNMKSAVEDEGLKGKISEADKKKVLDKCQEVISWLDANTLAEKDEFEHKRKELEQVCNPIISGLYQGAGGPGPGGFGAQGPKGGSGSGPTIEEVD

Row | dH [kcal/mol] | Substance
1 | -7.67 | Recombinant human CHIP S20E (phosphomimetic) (from UniProt Q9UNE7 1-303) (natural protein)
2 | -6.31 | Recombinant human CHIP wild type (from UniProt Q9UNE7 1-303) (natural protein)
